Data reported in doi:10.1101/2022.05.11.491540.
Read-outs that look alike come from different tables or passages of the source.

How the values were obtained:
Sirt7 (Sirt7WT) (human) [1] = assay: fluorescence polarization
Sirt7 (Sirt7WT) (human) [2] = assay: kinetic titration
Sirt7-CLB (human) = assay: NanoLuc complementation
[3] = system: isolated NanoLuc Large Bit; assay: NanoLuc complementation

20 bp FAM-DNA
Kd (Sirt7 (Sirt7WT) (human) [1]): 57.2 nM

nucleosome core particle (unmodified)
Kd (Sirt7 (Sirt7WT) (human) [2]): 2.92 nM

SMB-AcNucs (H3K18Ac small-bit nucleosome)
Kd (Sirt7-CLB (human); histone H3K18 acetylation): 3.75 nM
binding signal (fold lower Kd than without ADPr) (Sirt7-CLB (human); histone H3K18 acetylation): 2.5

SMB-Nucs (unmodified small-bit nucleosome)
Kd [3]: > 5 µM
Kd (Sirt7-CLB (human)): 3.92 nM
